In PMC9482650, “Quantitative fragmentomics allow affinity mapping of interactomes” (Nature Communications, 2022):

Key:
Assay in all cases: holdup assay
Design in all cases: key: below the threshold = too weak to quantify, mostly under pKd 3.1 to 4
APBA3_1, O96018 = biological target: T1, APBA3_1, O96018
T1 sequence (O96018 389-490, limits assumed, looked up): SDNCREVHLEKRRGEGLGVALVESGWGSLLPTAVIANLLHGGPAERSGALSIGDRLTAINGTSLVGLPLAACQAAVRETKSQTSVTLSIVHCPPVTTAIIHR

CARD11, Q9BXL7 = biological target: T2, CARD11, Q9BXL7
T2 sequence (Q9BXL7 662-765, limits assumed, looked up): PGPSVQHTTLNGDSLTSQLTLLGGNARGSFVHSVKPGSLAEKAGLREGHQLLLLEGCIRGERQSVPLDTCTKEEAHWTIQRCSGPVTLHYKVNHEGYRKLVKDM

DLG2_2, Q15700 = biological target: DLG2_2, Q15700
Chain of DLG2_2, Q15700 (Q15700 189-283): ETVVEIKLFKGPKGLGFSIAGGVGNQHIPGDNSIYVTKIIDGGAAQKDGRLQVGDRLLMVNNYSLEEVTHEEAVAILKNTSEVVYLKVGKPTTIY

DLG4_3, P78352 = biological target: DLG4_3, P78352
Chain of DLG4_3, P78352 (P78352 306-403): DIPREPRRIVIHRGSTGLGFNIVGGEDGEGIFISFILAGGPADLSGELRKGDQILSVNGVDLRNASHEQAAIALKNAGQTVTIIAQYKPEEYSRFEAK

DVL3, Q92997 = biological target: T3, DVL3, Q92997
T3 sequence (Q92997 244-331, limits assumed, looked up): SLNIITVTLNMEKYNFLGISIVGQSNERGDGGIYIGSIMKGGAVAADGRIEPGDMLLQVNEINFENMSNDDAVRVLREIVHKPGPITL

FRMPD3, Q5JV73 = biological target: FRMPD3, Q5JV73
Chain of FRMPD3, Q5JV73 (Q5JV73 12-100): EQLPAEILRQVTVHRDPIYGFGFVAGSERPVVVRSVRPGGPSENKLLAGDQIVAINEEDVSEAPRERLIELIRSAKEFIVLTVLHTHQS

GOPC, Q9HD26 = biological target: GOPC, Q9HD26
GORASP2, Q9H8Y8 = biological target: GORASP2, Q9H8Y8
GRIP1_5, Q9Y3R0 = biological target: T4, GRIP1_5, Q9Y3R0
T4 sequence (Q9Y3R0 568-668, limits assumed, looked up): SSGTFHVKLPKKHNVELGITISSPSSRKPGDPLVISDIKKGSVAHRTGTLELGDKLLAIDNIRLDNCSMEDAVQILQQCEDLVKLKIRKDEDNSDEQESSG

GRIP2_4, Q9C0E4 = biological target: GRIP2_4, Q9C0E4
Chain of GRIP2_4, Q9C0E4 (Q9C0E4 446-548): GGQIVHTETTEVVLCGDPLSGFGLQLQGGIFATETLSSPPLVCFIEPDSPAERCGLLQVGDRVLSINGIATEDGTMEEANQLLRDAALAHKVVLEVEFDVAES

GRIP2_6, Q9C0E4 = biological target: GRIP2_6, Q9C0E4
Chain of GRIP2_6, Q9C0E4 (Q9C0E4 648-740): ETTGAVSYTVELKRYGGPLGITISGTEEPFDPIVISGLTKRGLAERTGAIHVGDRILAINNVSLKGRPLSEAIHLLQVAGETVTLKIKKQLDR

HTRA1, Q92743 = biological target: HTRA1, Q92743
Chain of HTRA1, Q92743 (Q92743 360-477): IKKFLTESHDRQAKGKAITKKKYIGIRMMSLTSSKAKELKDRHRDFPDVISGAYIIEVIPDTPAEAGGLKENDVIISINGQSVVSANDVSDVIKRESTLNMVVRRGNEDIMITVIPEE

HTRA2, O43464 = biological target: HTRA2, O43464
Chain of HTRA2, O43464 (O43464 355-458): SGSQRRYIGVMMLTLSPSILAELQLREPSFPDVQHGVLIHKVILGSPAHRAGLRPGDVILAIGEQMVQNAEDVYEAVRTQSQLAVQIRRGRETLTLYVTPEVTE

HTRA3, P83110 = biological target: T5, HTRA3, P83110
T5 sequence (P83110 354-453, limits assumed, looked up): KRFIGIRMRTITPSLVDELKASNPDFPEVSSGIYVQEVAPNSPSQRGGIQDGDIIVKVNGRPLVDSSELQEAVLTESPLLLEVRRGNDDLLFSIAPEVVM

Inadl_6, Q8NI35 = biological target: Inadl_6, Q8NI35
Chain of Inadl_6, Q8NI35 (Q8NI35 1058-1167): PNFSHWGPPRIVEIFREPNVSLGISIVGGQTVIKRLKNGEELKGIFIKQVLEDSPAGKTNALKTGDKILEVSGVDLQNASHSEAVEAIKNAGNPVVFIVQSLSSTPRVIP

LAP2, Q96RT1 = biological target: LAP2, Q96RT1
Chain of LAP2, Q96RT1 (Q96RT1 other isoform, or with tags, fused parts or gaps): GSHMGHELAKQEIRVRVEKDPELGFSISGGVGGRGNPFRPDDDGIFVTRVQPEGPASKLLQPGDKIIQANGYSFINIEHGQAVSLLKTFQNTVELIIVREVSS

LNX1_1, Q8TBB1 = biological target: LNX1_1, Q8TBB1
Chain of LNX1_1, Q8TBB1 (Q8TBB1 261-371): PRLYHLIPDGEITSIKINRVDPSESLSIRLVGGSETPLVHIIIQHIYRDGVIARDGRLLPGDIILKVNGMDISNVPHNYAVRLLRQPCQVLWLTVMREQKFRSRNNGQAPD

LNX1_2, Q8TBB1 = biological target: LNX1_2, Q8TBB1
Chain of LNX1_2, Q8TBB1 (Q8TBB1 371-470): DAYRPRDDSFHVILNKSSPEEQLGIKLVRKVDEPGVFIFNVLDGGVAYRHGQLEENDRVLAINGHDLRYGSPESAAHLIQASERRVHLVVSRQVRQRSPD

LNX2_3, Q8N448 = biological target: T6, LNX2_3, Q8N448
T6 sequence (Q8N448 463-564, limits assumed, looked up): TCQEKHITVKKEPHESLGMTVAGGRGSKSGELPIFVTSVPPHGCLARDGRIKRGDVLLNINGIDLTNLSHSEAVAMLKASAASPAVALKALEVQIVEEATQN

LRRC7, Q96NW7 = biological target: T7, LRRC7, Q96NW7
T7 sequence (Q96NW7 1440-1537, limits assumed, looked up): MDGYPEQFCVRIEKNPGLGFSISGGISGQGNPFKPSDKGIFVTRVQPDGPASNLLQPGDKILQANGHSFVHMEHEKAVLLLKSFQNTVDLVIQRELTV

MAGI3_2, Q5TCQ9 = biological target: MAGI3_2, Q5TCQ9
Chain of MAGI3_2, Q5TCQ9 (Q5TCQ9 398-503): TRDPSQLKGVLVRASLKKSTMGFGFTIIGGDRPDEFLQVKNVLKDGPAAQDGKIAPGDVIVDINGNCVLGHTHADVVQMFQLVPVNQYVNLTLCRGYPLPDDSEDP

MPP7, Q5T2T1 = biological target: T8, MPP7, Q5T2T1
T8 sequence (Q5T2T1 134-230, limits assumed, looked up): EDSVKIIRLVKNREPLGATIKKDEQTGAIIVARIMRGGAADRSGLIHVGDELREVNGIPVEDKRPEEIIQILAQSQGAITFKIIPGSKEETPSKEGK

NHERF4_1, Q86UT5-2 = biological target: NHERF4_1, Q86UT5-2
Chain of NHERF4_1, Q86UT5-2 (Q86UT5 other isoform, or with tags, fused parts or gaps): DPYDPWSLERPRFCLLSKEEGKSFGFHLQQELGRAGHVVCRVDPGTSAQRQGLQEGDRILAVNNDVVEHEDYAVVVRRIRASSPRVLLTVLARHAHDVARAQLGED

PDZRN4_1, Q6ZMN7 = biological target: PDZRN4_1, Q6ZMN7
Chain of PDZRN4_1, Q6ZMN7 (Q6ZMN7 213-318): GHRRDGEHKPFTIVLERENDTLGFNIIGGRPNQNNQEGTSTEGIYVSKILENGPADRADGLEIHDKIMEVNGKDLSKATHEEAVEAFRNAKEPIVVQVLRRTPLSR

SNTB1, Q13884 = biological target: T9, SNTB1, Q13884
T9 sequence (Q13884 107-205, limits assumed, looked up): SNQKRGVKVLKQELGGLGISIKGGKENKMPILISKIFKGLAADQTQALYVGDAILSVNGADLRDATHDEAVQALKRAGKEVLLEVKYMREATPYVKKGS

TJP1_3, Q07157 = biological target: TJP1_3, Q07157
Chain of TJP1_3, Q07157 (Q07157 416-512): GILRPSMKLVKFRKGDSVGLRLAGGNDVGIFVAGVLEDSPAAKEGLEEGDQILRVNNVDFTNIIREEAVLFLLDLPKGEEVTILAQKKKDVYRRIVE

TJP3_3, O95049 = biological target: T10, TJP3_3, O95049
T10 sequence (O95049 375-456, limits assumed, looked up): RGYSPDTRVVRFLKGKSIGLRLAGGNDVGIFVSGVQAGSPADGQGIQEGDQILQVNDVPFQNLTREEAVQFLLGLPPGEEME

[1] = plain residues with an end cap or a label only (N-terminal biotin on a linker: ahx)
[2] = plain residues with an end cap or a label only (N-terminal biotin on a linker: ttds)

## SDSSGQEYSL [KCTD3, Q9Y597]
APBA3_1, O96018; [1]
  pKd: below the threshold
CARD11, Q9BXL7; [1]
  pKd: below the threshold
DLG2_2, Q15700; [1]
  pKd: below the threshold
DLG4_3, P78352; [1]
  pKd: below the threshold
DVL3, Q92997; [1]
  pKd: below the threshold
FRMPD3, Q5JV73; [1]
  pKd: 3.7
GOPC, Q9HD26; [1]
  pKd: below the threshold
GORASP2, Q9H8Y8; [1]
  pKd: below the threshold
GRIP1_5, Q9Y3R0; [1]
  pKd: below the threshold
GRIP2_4, Q9C0E4; [1]
  pKd: below the threshold
GRIP2_6, Q9C0E4; [1]
  pKd: 3.6
HTRA1, Q92743; [1]
  pKd: 3.98
HTRA2, O43464; [1]
  pKd: below the threshold
HTRA3, P83110; [1]
  pKd: below the threshold
Inadl_6, Q8NI35; [1]
  pKd: below the threshold
LAP2, Q96RT1; [1]
  pKd: below the threshold
LNX1_1, Q8TBB1; [1]
  pKd: below the threshold
LNX1_2, Q8TBB1; [1]
  pKd: below the threshold
LNX2_3, Q8N448; [1]
  pKd: below the threshold
LRRC7, Q96NW7; [1]
  pKd: below the threshold
MAGI3_2, Q5TCQ9; [1]
  pKd: below the threshold
MPP7, Q5T2T1; [1]
  pKd: 4.1
NHERF4_1, Q86UT5-2; [1]
  pKd: below the threshold
PDZRN4_1, Q6ZMN7; [1]
  pKd: below the threshold
SNTB1, Q13884; [1]
  pKd: below the threshold
TJP1_3, Q07157; [1]
  pKd: below the threshold
TJP3_3, O95049; [1]
  pKd: below the threshold

## DKDPHSETAL [TMIGD1, Q6UXZ0]
APBA3_1, O96018; [2]
  pKd: below the threshold
CARD11, Q9BXL7; [2]
  pKd: below the threshold
DLG2_2, Q15700; [2]
  pKd: below the threshold
DLG4_3, P78352; [2]
  pKd: below the threshold
DVL3, Q92997; [2]
  pKd: below the threshold
FRMPD3, Q5JV73; [2]
  pKd: 3.53
GOPC, Q9HD26; [2]
  pKd: below the threshold
GORASP2, Q9H8Y8; [2]
  pKd: below the threshold
GRIP1_5, Q9Y3R0; [2]
  pKd: below the threshold
GRIP2_4, Q9C0E4; [2]
  pKd: below the threshold
GRIP2_6, Q9C0E4; [2]
  pKd: below the threshold
HTRA1, Q92743; [2]
  pKd: below the threshold
HTRA2, O43464; [2]
  pKd: below the threshold
HTRA3, P83110; [2]
  pKd: below the threshold
Inadl_6, Q8NI35; [2]
  pKd: 3.53
LAP2, Q96RT1; [2]
  pKd: 3.66
LNX1_1, Q8TBB1; [2]
  pKd: below the threshold
LNX1_2, Q8TBB1; [2]
  pKd: below the threshold
LNX2_3, Q8N448; [2]
  pKd: below the threshold
LRRC7, Q96NW7; [2]
  pKd: below the threshold
MAGI3_2, Q5TCQ9; [2]
  pKd: 4.19
MPP7, Q5T2T1; [2]
  pKd: below the threshold
NHERF4_1, Q86UT5-2; [2]
  pKd: 3.88
PDZRN4_1, Q6ZMN7; [2]
  pKd: 4.64
SNTB1, Q13884; [2]
  pKd: 4.53
TJP1_3, Q07157; [2]
  pKd: below the threshold
TJP3_3, O95049; [2]
  pKd: 3.49

## QRQARSETLV [HPV59-E6, Q81964]
APBA3_1, O96018; [2]
  pKd: below the threshold
CARD11, Q9BXL7; [2]
  pKd: below the threshold
DLG2_2, Q15700; [2]
  pKd: 4.97
DLG4_3, P78352; [2]
  pKd: 4.21
DVL3, Q92997; [2]
  pKd: below the threshold
FRMPD3, Q5JV73; [2]
  pKd: below the threshold
GOPC, Q9HD26; [2]
  pKd: 3.92
GORASP2, Q9H8Y8; [2]
  pKd: 4.34
GRIP1_5, Q9Y3R0; [2]
  pKd: below the threshold
GRIP2_4, Q9C0E4; [2]
  pKd: below the threshold
GRIP2_6, Q9C0E4; [2]
  pKd: below the threshold
HTRA1, Q92743; [2]
  pKd: 4.14
HTRA2, O43464; [2]
  pKd: below the threshold
HTRA3, P83110; [2]
  pKd: 3.69
Inadl_6, Q8NI35; [2]
  pKd: below the threshold
LAP2, Q96RT1; [2]
  pKd: below the threshold
LNX1_1, Q8TBB1; [2]
  pKd: below the threshold
LNX1_2, Q8TBB1; [2]
  pKd: 4.25
LNX2_3, Q8N448; [2]
  pKd: below the threshold
LRRC7, Q96NW7; [2]
  pKd: below the threshold
MAGI3_2, Q5TCQ9; [2]
  pKd: 6.07
MPP7, Q5T2T1; [2]
  pKd: below the threshold
NHERF4_1, Q86UT5-2; [2]
  pKd: below the threshold
PDZRN4_1, Q6ZMN7; [2]
  pKd: 4.04
SNTB1, Q13884; [2]
  pKd: 3.86
TJP1_3, Q07157; [2]
  pKd: below the threshold
TJP3_3, O95049; [2]
  pKd: 3.7

## ESLLLGPSNF [SHROOM4, Q9ULL8]
APBA3_1, O96018; [1]
  pKd: below the threshold
CARD11, Q9BXL7; [1]
  pKd: below the threshold
DLG2_2, Q15700; [1]
  pKd: below the threshold
DLG4_3, P78352; [1]
  pKd: below the threshold
DVL3, Q92997; [1]
  pKd: below the threshold
FRMPD3, Q5JV73; [1]
  pKd: below the threshold
GOPC, Q9HD26; [1]
  pKd: below the threshold
GORASP2, Q9H8Y8; [1]
  pKd: below the threshold
GRIP1_5, Q9Y3R0; [1]
  pKd: below the threshold
GRIP2_4, Q9C0E4; [1]
  pKd: below the threshold
GRIP2_6, Q9C0E4; [1]
  pKd: below the threshold
HTRA1, Q92743; [1]
  pKd: below the threshold
HTRA2, O43464; [1]
  pKd: below the threshold
HTRA3, P83110; [1]
  pKd: below the threshold
Inadl_6, Q8NI35; [1]
  pKd: below the threshold
LAP2, Q96RT1; [1]
  pKd: below the threshold
LNX1_1, Q8TBB1; [1]
  pKd: below the threshold
LNX1_2, Q8TBB1; [1]
  pKd: below the threshold
LNX2_3, Q8N448; [1]
  pKd: below the threshold
LRRC7, Q96NW7; [1]
  pKd: below the threshold
MAGI3_2, Q5TCQ9; [1]
  pKd: below the threshold
MPP7, Q5T2T1; [1]
  pKd: below the threshold
NHERF4_1, Q86UT5-2; [1]
  pKd: below the threshold
PDZRN4_1, Q6ZMN7; [1]
  pKd: below the threshold
SNTB1, Q13884; [1]
  pKd: below the threshold
TJP1_3, Q07157; [1]
  pKd: below the threshold
TJP3_3, O95049; [1]
  pKd: below the threshold
